Experimental findings from patent publication US20140037642A1 (Amgen, published 2014) are described below.

Assay [1] deals with T1, hu IGF-1R(ECD)-C3-muIgG1Fc (human; mouse, Glycosylated. 60% of the preparation was cleaved between the alpha and beta chains (RKRR, mature positions 708-711), which stay disulfide-linked; 40% was unprocessed. Dimer through the …).
T1 construct: 60% of the product was processed into α and β chains, 40% unprocessed; also called IGF-1R(ECD)-C3-muFc; IGF-1R-C3-muFc
Description: phage Fab ELISA, plate coated with IGF-1R-C3-mFc at 5 µg/ml. On the procedure: (§1) In 96-well 2-ml deep-well blocks, 480 μl/well 2xYT-CG broth was inoculated with 20 μl of overnight cultures of the individual clones, then incubated at 37° C., 300 rpm for 3 hours. To each well, 50 μl of 1:3 diluted M13KO7 helper phage were added to infect the cells. The block was incubated at 37° C. without shaking for 30 minutes, and then shaken gently for another 30 minutes at 150 rpm. The block was centrifuged at 3600 rpm for 20 minutes to pellet the infected cells. The cell pellet in each well was suspended into 480 μl of 2xYT-CK (2xYT broth containing 100 μg/ml carbenicillin and 40 μg/ml kanamycin), and incubated at 30° C. overnight for about 20 hours. The cell debris was separated by centrifugation at 3600 rpm for 20 minutes. The rescued phage supernatant was used in the phage ELISA to check for IGF-1R-specific, INSR-cross reactive, or mouse Fc binding of individual clones.
(§2) The coated plates were washed 3× with 300 μl/well of PBS. The washed plates were blocked with 300 μl/well 2% MPBS at room temperature for one hour. Meanwhile, rescued phages of individual clones were pre-blocked by mixing 170 μl of rescued phage with 170 μl of 4% MPBS. The blocked plates were washed 5× with 300 μl/well TBST (TBS: 10 mM Tris-HCl, pH 7.5, 1 mM EDTA, 150 mM NaCl; Tween-20. 0.1%). 100 μl/well of pre-blocked phage dilutions were distributed to each set of coated plate, which were incubated at room temperature on a rocker for 90 minutes. The plates were washed 5× with 300 μl/well TBST. 100 μl/well of anti-M13-HRP in 2% MPBS (1:3000 dilution, catalog number 27-9421-01, Amersham Pharmacia Biotech) were distributed, and plates were incubated at room temperature on rocker for one hour. The plates were washed 5× with 300 μl/well TBST. 100 μl/well of the substrate 1-Step™ ABTS (Pierce Biotechnology, Rockford, Ill., catalog number 37615) were added. Plates were incubated for one hour. OD₄₀₅ was measured for signal detection.
In general terms: An ELISA detects its analyte on a solid surface through an enzyme-linked reagent.

A further assay deals with T2, hu INSR(ECD)-muIgG1Fc (human; mouse, Glycosylated. 87% of the preparation was cleaved between the alpha and beta chains (RKRR site), which stay disulfide-linked. Dimer through the receptor and the murine Fc.).
T2 construct: 87% processed into α and β chains; also called INSR(ECD)-muFc; INSR-mFc
Description: phage Fab ELISA, plate coated with INSR-mFc at 5 µg/ml. On the procedure:
as §1, §2

Numbering of substitutions follows the chain as printed.

B1: L12H12 phage-displayed Fab (Fab, V domains shown)
VH: EVQLVESGGGLVQPGGSLRLSCAASGFTFSSYAMSWVRQAPGKGLEWVSAISGSGGSTYYADSVKGRFTISRDNSKNTLYLQMNSLSADDTAVYFCASGGWYGDYFDYWGQGTLVTVSS
VL: NFMLTQPHSVSESPGKTVTISCTRSSGSIASNYVQWYQQRPGSSPTTVIYEDNQRPSGVPDRFSGSIDSSSNSASLTISGLKTEDEADYYCQSYDSSNQRVFGGGTKLTVL
As to B1, the values for the binding result (in assay [1]; with hu INSR(ECD)-muIgG1Fc) were “binds” and “no binding”, respectively.

B2: L5H5 phage-displayed Fab (Fab, V domains shown)
VH: QLQLQESGPGLVKPSQTLSLTCTVSGGSISSSNWWSWVRQPPGKGLEWIGEIYHSGSTNYNPSLKSRVTISVDKSKNQFSLKLSSVTAADTAVYYCARYSSSRNDAFDIWGQGTMVTVSS
VL: not shown
Take B2: the results for the binding result (in assay [1]; with hu INSR(ECD)-muIgG1Fc) were “binds” and “no binding”, respectively.

B3: L11H11 phage-displayed Fab (Fab, V domains shown)
VH: QLQLQESGPGLVKPSGTLSLTCAVSGGSISSSNWWSWVRQPPGKGLEWIGEIYHSGSTNYNPSLKSRVTISVDKSKNQSSLKLSSVTAADTAVYYCARANRDDAFDIWGQGTMVTVSS
VL: EIVLTQSPLSLPVTPGEPASISCRSSQSLLHSNGYNYLNWYLQKPGQSPQLLIYLGSNRASGVPDRFSASGSGTDFTLKISRVEAEDVGVYYCMQALQTPITFGQGTRLEIK
Consider B3, for which the binding result in assay [1] was “binds”; in the assay with hu INSR(ECD)-muIgG1Fc, “no binding”.

B4: L52H52 phage-displayed Fab (Fab, V domains shown)
VH: EVQLVESGPGLVKPSGTLSLTCAVSGGSISSSNWWSWVRQPPGKGLEWIGEIYHSGSTNYNPSLKSRVTISVDKSKNQFSLKLSSVTAADTAVYYCAREKSGMDVWGQGTTVTVSS
VL: EIVMTQSPLSLPVTPGEPASISCRSSQSLLHTNGYDYLDWYLQKPGQSPQLLIYLGSTRASGVPDRFSGSGSGTDFTLKISRVEAEDVGVYYCMQAFQTPLTFGGGTKMEIK
For B4, the binding result in assay [1] was “binds”; with hu INSR(ECD)-muIgG1Fc it was “no binding”.

B5: L26H26 phage-displayed Fab (Fab, V domains shown)
VH: QVQLQESGPGLVKPSGTLSLTCAVSGGSISSSNWWSWVRQPPGKGLEWIGEIYHSGSTNYNPSLKSRVTISVDKSKNQFSLKLSSVTAADTAVYYCARYSYGTVGIDYWGQGTLVTVSS
VL: B4 VL with E1D, I2V, T32S, D36T, T58N, A85P, F97L, Q98E, T99M, M109V
Regarding B5, the binding result in assay [1] is “binds”; with hu INSR(ECD)-muIgG1Fc, “no binding”.

B6: L4H4 phage-displayed Fab (Fab, V domains shown)
VH: QVQLQQWGAGLLKPSETLSLTCAVSGGSFSGYYWSWIRQPPGKGLEWIGEINHSGSTNYNRSLKSRVTISVDTSKNQFSLKLSSVTAADTAVYYCARLSYGSGVDYWGQGTLVTVSS
VL: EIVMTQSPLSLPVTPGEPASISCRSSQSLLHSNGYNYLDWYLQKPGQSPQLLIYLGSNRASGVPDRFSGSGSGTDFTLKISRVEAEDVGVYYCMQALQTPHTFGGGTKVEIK
For the molecule B6, the binding result is on record as “binds” in assay [1] and “no binding” with hu INSR(ECD)-muIgG1Fc.

B7: L9H9 phage-displayed Fab (Fab, V domains shown)
VH: EVQLVESGPGLVKPSGTLSLTCAVSGGSISSSNWWSWVRQPPGKGLEWIGYIYYSGSTYYNPSLKSRVTMSVDTSKNQFSLKLSSVTAADTAVYYCARWSYLDAFDIWGQGTMVTVSS
VL: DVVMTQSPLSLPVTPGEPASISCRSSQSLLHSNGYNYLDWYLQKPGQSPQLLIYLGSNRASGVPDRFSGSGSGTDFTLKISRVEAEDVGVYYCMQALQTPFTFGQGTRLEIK
Turning to B7, the binding result is reported as “binds” in assay [1] and “no binding” with hu INSR(ECD)-muIgG1Fc.

B8: L50H50 phage-displayed Fab (Fab, V domains shown)
VH: QVQLQESGPGLVKPSETLSLTCTVSGGSIGNYDWSWIRQPPGKGLEWIGTIYSSGSTYYSPSLKSRLTISVDKSKNRFSLKLSSVTAADTAVYYCARARGYSSPFDPWGQGTLVTVSS
VL: ETTLTQSPGTLSLSPGERATLSCRASQTISSSHLAWYQQKPGQSPRLLIYGAGYRATGIPDRFSGSGSGTDFTLTISRLEPEDFAVYYCQHYGSSLRTFGQGTKVEIK
Take B8: the results for the binding result (in assay [1]; with hu INSR(ECD)-muIgG1Fc) were “binds” and “no binding”, respectively.

B9: L16H16 phage-displayed Fab (Fab, V domains shown)
VH: B5 VH with Y99W, S100T, Y101G, G102R, V104D, G105A, I106F, Y108I, L114M
VL: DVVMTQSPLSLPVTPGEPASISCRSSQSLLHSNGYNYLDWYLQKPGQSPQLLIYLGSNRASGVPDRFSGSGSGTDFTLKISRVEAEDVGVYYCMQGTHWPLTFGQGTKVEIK
Regarding B9, the results for the binding result (in assay [1]; in the assay with hu INSR(ECD)-muIgG1Fc) were “binds” and “no binding”, respectively.

B10: L51H51 phage-displayed Fab (Fab, V domains shown)
VH: QVQLVQSGAEVKKPGSSVKVSCKASGGTFSSYAISWVRQAPGQGLEWMGIINPSGGSTSYAQKFQGRVTITRDTSASTAYMELSSLRSEDTAVYYCARDRWRYDAFDIWGQGTMVTVSS
VL: NFMLTQPHSVSESPGKTVTISCTGSGGNIASNYVQWYQQRPGRAPTTVIYEDNRRPSGVPDRFSGSIDSSSNSASLTISGLKTEDEADYYCQSYDPYNRVFGGGTKLTVL
As for B10, the binding result in assay [1] is “binds”; in the assay with hu INSR(ECD)-muIgG1Fc it was “no binding”.

B11: L8H8 phage-displayed Fab (Fab, V domains shown)
VH: QVQLQQWGPGLVKPSGTLSLTCAVSGGSISSSNWWSWVRQPPGKGLEWIGEIYHSGSTNYNPSLESRVTISVDKSKNQFSLKLSSVTAADTAVYYCARDRYYGMDVWGQGTTVTVSS
VL: not shown
For the molecule B11, the binding result was “binds” in assay [1] and “no binding” with hu INSR(ECD)-muIgG1Fc.

B12: L13H13 phage-displayed Fab (Fab, V domains shown)
VH: QVQLQESGPGLVKPSETLSLTCTVSGGSISSSNWWSWVRQPPGKGLEWIGEIYHSGSTNYNPSLKSRVTISVDKSKNQFSLKLSSVTAADTAVYYCAREGNRTVTSAFDIWGQGTMVTVSS
VL: not shown
As for B12, the values for the binding result (in assay [1]; with hu INSR(ECD)-muIgG1Fc) were “binds” and “no binding”, respectively.
